Target: T1, RID1 (Oryza sativa (rice), UniProt B1B534 1-475)
T1 sequence: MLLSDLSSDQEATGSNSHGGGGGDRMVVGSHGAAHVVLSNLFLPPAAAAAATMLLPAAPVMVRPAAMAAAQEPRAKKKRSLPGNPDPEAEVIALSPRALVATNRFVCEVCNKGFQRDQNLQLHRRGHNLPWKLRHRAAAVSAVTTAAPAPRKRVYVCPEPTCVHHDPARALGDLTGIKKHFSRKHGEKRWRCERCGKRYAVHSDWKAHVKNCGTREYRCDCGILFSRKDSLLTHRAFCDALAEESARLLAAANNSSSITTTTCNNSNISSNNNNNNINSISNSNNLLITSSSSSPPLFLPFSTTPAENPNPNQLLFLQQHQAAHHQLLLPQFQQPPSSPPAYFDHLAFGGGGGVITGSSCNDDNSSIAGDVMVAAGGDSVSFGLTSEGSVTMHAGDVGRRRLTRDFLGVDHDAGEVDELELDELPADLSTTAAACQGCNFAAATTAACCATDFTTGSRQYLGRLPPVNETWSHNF
Test: EMSA; 10 uM ZnCl2; 10 mM Tris (pH not stated), 50 mM KCl, 10 uM ZnCl2, 1 mM DTT, 1 ug/ul poly(dI-dC), 0.1% BSA, 2.5% glycerol, 0.05% NP-40; 50 fmol probe; 30 min on ice; 6% native PAGE
Conditions: protein: recombinant; tags: His (pET-32a; vector Trx fusion not mentioned); label: 5' biotin; blunt

B1: bio-Hd3a (dsDNA)
DNA 1: CTTATCTTGCCCGGACAAATCGAGCTAAGCAA
DNA 2: TTGCTTAGCTCGATTTGTCCGGGCAAGATAAG
binding result: binds

B2: bio-Hd3a-M (dsDNA)
DNA 1: CTTATCTTGCCCGGATTAATCGAGCTAAGCAA
DNA 2: TTGCTTAGCTCGATTAATCCGGGCAAGATAAG
binding result: no binding

B3: bio-RFT1 (dsDNA)
DNA 1: ATAACGTTTGACCATTTGTCTTATTAAATATATATATAAA
DNA 2: TTTATATATATATTTAATAAGACAAATGGTCAAACGTTAT
binding result: binds

B4: bio-RFT1-M (dsDNA)
DNA 1: ATAACGTTTGACCATTAATCTTATTAAATATATATATAAA
DNA 2: TTTATATATATATTTAATAAGATTAATGGTCAAACGTTAT
binding result: no binding

— paper PMC5345856, “Suppressor of rid1 (SID1) shares common targets with RID1 on florigen genes to initiate floral transition in rice”
